# Source: paper PMC8553427
# Target: T1, AtMYB5trunc (truncated MYB5, MYB DNA-binding domain) (Arabidopsis thaliana (Col)) (UniProt Q38850)
# T1 sequence: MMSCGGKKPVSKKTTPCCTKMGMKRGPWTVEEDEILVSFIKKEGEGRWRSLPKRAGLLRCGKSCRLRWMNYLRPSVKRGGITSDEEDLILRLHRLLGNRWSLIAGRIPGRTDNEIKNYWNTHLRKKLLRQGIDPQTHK
# Test: EMSA
# Conditions: 20 mM NaCl, 5 mM MgCl2, 20 mM Tris pH 8.0, 10% glycerol, 0.5 mM EDTA, 0.5 mM DTT, poly d(I-C); temperature not stated
sequence,measurement,value
CGATGGTCACTTTCCTCATACTCTTTCTATATTGACTGTTAGTTTCTGGTCATTCTCGAAACAAACACTACATTGACTGTTAGATTTCTCATTTCAACCAAAGTAAGTAATAAATTCTGAACC (double strand) [ABE4 promoter probe],binding,binds more weakly
